Measured values taken from PMC8717551 (The Journal of Biological Chemistry, 2021).

Columns and labels:
[1] = biological target: T1, Sa2YefM in heterohexamer;Sa2YoeB in heterohexamer (Staphylococcus aureus …, UniProt Q2FVF7;Q2FVF8 1-85;1-88, |); assay: ITC
T1 sequence 1: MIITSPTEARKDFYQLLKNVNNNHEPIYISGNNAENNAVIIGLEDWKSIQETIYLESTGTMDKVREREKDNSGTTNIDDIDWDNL
T1 sequence 2: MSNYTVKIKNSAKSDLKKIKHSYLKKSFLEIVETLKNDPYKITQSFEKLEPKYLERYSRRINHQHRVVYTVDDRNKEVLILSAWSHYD

[2] = biological target: the molecule itself; assay: crystal structure

B1: promoter mutant1 (core GTAC mutated) (dsDNA)
DNA 1: TTGACTGCATCAAGTGCTGCAGCTAT
DNA 2: ATAGCTGCAGCACTTGATGCAGTCAA
B1: no binding [1].

B2: promoter mutant2 (flanking mutated) (dsDNA)
DNA 1: TTGTTGTACAAAAGTTTGTACAATAT
DNA 2: ATATTGTACAAACTTTTGTACAACAA
B2: no binding [1].

B3: Sa2YefM antitoxin (natural protein)
chain: MIITSPTEARKDFYQLLKNVNNNHEPIYISGNNAENNAVIIGLEDWKSIQETIYLESTGTMDKVREREKDNSGTTNIDDIDWDNL
For B3, the “stoichiometry N” value [2] was 2.
